Measured values: US9427478B2, “Enzymatic conjugation of polypeptides” (Innate Pharma, priority 2013, dated 2016)

How the values were obtained:
[1] = SE-HPLC, physical stability after freeze/thaw and shaking; assay type: physicochemical; details: physical stability study
Description: Physical stability was measured after a Freeze/Thaw (F/T) cycle in which ADC products are frozen at least 2 hours at −20° C. and thawed at least 1 hour at room temperature three times and tested 24 h after the last Freeze/Thaw cycle, and after shaking in which ADC products samples are shaken with a “vortex” 3 min at 3000 rpm and tested 24 h after this shaking stress application. […] Measurements were also made by SE-HPLC, performed with the Acquity UPLC from WATERS® with a BEH200 SEC 1.7 μm column. SE-HPLC is used to evaluate soluble and covalent/non-covalent aggregates levels and the proteic fragments that could be generated.

[2] = SE-HPLC, chemical stability on storage; assay type: physicochemical
Description: A chemical stability study monitored the molecular integrity of the ADC products that could be impacted following 3 months storage at +40° C. (thermal stress accelerated degradation storage conditions). Samples stored at +40° C. were compared to samples stored at +5° C., as assessed by SE-HPLC, performed with the Acquity UPLC from WATERS® with a BEH200 SEC 1.7 μm column.

## ADCETRIS ®
[1]
  fragments, in words: significant levels of fragments
[2]; chemical stability at 5° C.
  fragments, in words: significant levels of fragments
[2]; storage at 5° C., T1 W (1 week)
  Fragments %: 1.77%
